Assays:
[1] = molecular target: T1, Aβ1-42 (Homo sapiens, UniProt P05067); test: Aβ1-42 fibril formation ThT fluorescence assay; format: biochemical; conditions: for decrease in ThT fluorescence of Aβ1-42: 30 μM Aβ1-42, 48 hrs
T1 construct: Aβ1-42 (American Peptide); purchased American Peptide
Description: The effect of five synthesized αB crystallin peptides STSLSPFYLRPPSFLRAP (ST), DRFSVNLDVKHFS (DR), HGKHEERQDE (HG), LTITSSLSSDGV (LT), and ERTIPITRE (ER) on Aβ1-42 fibrillation was measured using the ThT fluorescence assay (FIG. 1). The formation and inhibition of Aβ1-42 fibrils was qualitatively verified by fluorescence and bright-field microscopy. The concentration and stoichometry of the peptides was varied relative to Aβ1-42 to establish a concentration curve. In addition, the effect of two known inhibitors of Aβ1-42 fibrillation (APS and NAP) and a control neuropeptide (AT1) with no fibril inhibition activity was measured and compared to the effect of the αB crystallin peptides on Aβ1-42 fibrillation. The ThT fluorescence of 30 μM Aβ1-42 alone incubated at 37° C. for 48 hrs increased from ˜350,000 to ˜450,000 RFU. […] In contrast, 6 μM DR, LT, and […] had no effect on Aβ1-42 fibril formation. […] Increasing the concentration of the DR peptide to 30 μM decreased the ThT fluorescence by approximately 50%. […] However, when the concentrations of the LT and ER peptides were increased to 150 μM, a 60-100% decrease in ThT fluorescence was measured. […] The negative control peptide AT1 had no effect on Aβ1-42 fibril formation even at a concentration as high as 300 μM.
The Thioflavin T (ThT) fluorescence of Aβ1-42 in the presence of varying concentrations of αB crystallin peptides and controls was measured. […] Addition of 6 μM DR, LT, and ER had no effect on the ThT fluorescence of Aβ1-42. When the concentration of the peptides was increased to 30 μM (1:1::peptide:Aβ1-42), the αB crystallin peptides ST, DR, HG decreased the ThT fluorescence by 50-100%. At the same concentrations, APS and NAP decreased the ThT fluorescence by 30-100%. When the concentration of the peptides was increased further to 150 μM ([…]), four of the five αB crystallin peptides DR, HG, LT, and ER decreased the ThT fluorescence by 58-100%. At the same concentrations, APS and NAP decreased the fluorescence by 28-100%. […] The formation and inhibition of Aβ fibrils was verified microscopically.
Thioflavin T (ThT) Assays. The effect of the five αB crystallin peptides (ST, DR, HG, LT, and ER) on Aβ1-42 fibril formation was measured using the ThT fluorescence assay (44-47) and compared with two known inhibitors of Aβ1-42 fibril formation (Tramiprosate and NAP)(34, 36) and a negative control neuropeptide Angiotensin 1 (AT1). Thioflavin T is a fluorescent dye that has a high affinity for amyloid fibrils and becomes fluorescent (excitation λ=450 nm, emission λ=486 nm) when bound to fibrils. For the Aβ1-42 assays, peptides and APS were dissolved to 2 mM in 0.25% DMSO and diluted accordingly, while Aβ1-42 was dissolved in 20 mM Tris-Cl, pH 7.40, and 100 mM NaCl. For the 5:1::inhibitor:Aβ1-42 assay, 10 μL of 450 μM peptide or APS was mixed with 10 μL of 90 μM Aβ1-42), 7 μL 20 mM Tris-Cl, 100 mM NaCl, pH 7.4 and 3 μL of 1 mM ThT. For the 1:1::inhibitor:Aβ1-42 assay, 10 μL of 90 μM peptide or APS was mixed with 10 μL of 90 μM Aβ(1-42), 7 μL 20 mM Tris-Cl, 100 mM NaCl, pH 7.4 and 3 μL of 1 mM ThT. For the 1:5::inhibitor:Aβ1-42 assay, 10 μL of 18 μM peptide or APS was mixed with 10 μL of 90 μM Aβ(1-42), 7 μL 20 mM Tris-Cl, 100 mM NaCl, pH 7.4 and 3 μL of 1 mM ThT. ThT fluorescence in relative fluorescence units (RFU) was measured using a Perkin Elmer Victor^3 V plate reader. Assays were performed in 384-well fluorescence plates in duplicates or triplicates. Samples were incubated at 37° C. for a total of 48 hours. ThT fluorescence was measured at 0, 24, and 48 hours. The effect of the peptides and APS was calculated as percentage fibril formation relative to Aβ1-42 alone (100%) at the end of 48 hours.

[2] = molecular target: Aβ (Homo sapiens, UniProt P05067); test: Aβ Thioflavin T fluorescence (fibrillization, 50° C., 72 hours); format: biochemical; conditions: 1:10 Aβ:peptide; for effect on the fibrillization of Aβ (ranking): 72 hrs; for Δfluorescence (Aβ): Thioflavin T, 50° C., 72 hours
Description: Aβ Thioflaviin T fluorescence. Aβ fibrils were grown in the presence and absence of αB crystallin and peptides in conditions similar to that previously described for the presence of αB crystallin. Bakthisaran et al., Biochem J, 2005. Peptides were dissolved to 9.1 mM in trifluorethanol (TFE) and diluted to 0.91 mM stock solutions in 50 mM PBS, 100 mM NaCl, pH 7.4. 3.5 mg of Thioflavin T was dissolved in 100 μl of 50 mM Glycine pH 8.5. A stock solution of 1 mg/ml (0.22 mM) Aβ was prepared. 20 μl Aβ, 50 μl chaperone, 2 μl Thioflavin T was mixed with 28 μl 50 mM PBS, 100 mM NaCl, pH 7.4. Fluorescence was read using a Beckman Coultier DTX 880 multimode detector. Samples were heated at 50° C. for 72 hours and fluorescence was read again.
The fibrillization of Aβ was measured as fluorescence of the fluorescent dye Thioflavin T from solutions containing 1:10 monomeric molar ratio of Aβ:peptide. In the absence of Aβ fibrils, Thioflavin T had little or no fluorescence. The fluorescence of the Thioflavin T bound to Aβ fibrils in the absence of any other molecule after 72 hrs was set to 100%. […] Fibril formation=ΔfluorescenceAβ (with chaperone)*100/ΔfluorescenceAβ (without chaperone).

Row | Sequence | decrease in ThT fluorescence of Aβ1-42 ([1]; 6 μM inhibitor, 37° C.) | effect on the fibrillization of Aβ (ranking) [2] | Δfluorescence (Aβ) [2] | decrease in ThT fluorescence of Aβ1-42 ([1]; 30 μM inhibitor (1:1)) | effect on Aβ1-42 fibril formation, over all concentrations ([1]; any concentration) | inhibition of Aβ fibrillation ([1]; peptide to substrate concentration of 1:5)
1 | DRFSVNLDVKHFS | no effect | strongest effect | 264,396,672 | – | – | –
2 | ERTIPITRE | no effect | – | 576,742,720 | no effect | – | –
3 | HGKHEERQDE | – | weakest effect | 796,478,624 | – | most effective inhibitor | –
4 | LTITSSLSSDGV | no effect | – | 352,301,312 | no effect | – | –
5 | STSLSPFYLRPPSFLRAP | – | – | 478,389,568 | – | – | 100%

From patent US20070185028A1, “Compositions and methods for treatment of protein misfolding and protein aggregation diseases” (priority 2004, published 2007)
